The target of assay [1] is Rpk4 monomer (with Avi and hexa-histidine tags) (SARS-CoV-2 (Wuhan-Hu-1)).
The target of assay [2] is Rpk9 monomer (with Avi and hexa-histidine tags) (SARS-CoV-2 (Wuhan-Hu-1)).

This note sets out measurements from patent publication US20250002907A1.

For CR3022 IgG (antibody), the fold decrease of affinity against wild-type RBD in assay [1] and in assay [2] was below 3.5 fold throughout.
